Reference: patent publication US20190029960A1, “Therapeutic Nanoparticles Having EGFR Ligands and Methods of Making and Using Same” (Pfizer Inc., priority 2016, published 2019)
*1 amine or outer side, *2 acyl side, *3 side chain or, on linkers, in order; H or OH if unused. Where a SMILES comes first, the peptide text is derived from it. Bridges are numbered along the chain shown (N, C = ends). Primed or numbered codes have the meaning given here. Where no end group is shown, it is not given here. Side-chain parts run from the residue outwards. [ ]: non-standard residue; d: D form. The star is where a group is joined. Trp(5-OMe) = COc1ccc2[nH]cc(C[C@H](N)C(=O)O)c2c1; DBCO = C1#Cc2ccccc2N(*)Cc2ccccc21; Igl = N[C@H](C(=O)O)C1Cc2ccccc2C1; PEG5 = NCCOCCOCCOCCOCCOCCC(=O)O; Pen = CC(C)(S)[C@H](N)C(=O)O; Suc = O=C(CCC(=O)[*:2])[*:1]; DBCO′ = dibenzocyclooctyne; Orn = NCCC[C@H](N)C(=O)O; Pra = C#CC[C@H](N)C(=O)O; Dap = NC[C@H](N)C(=O)O

Columns and labels:
[1] = molecular target: T1, recombinant human EGFR (Homo sapiens, UniProt P00533); assay: P2 competition ELISA (P2-Biotin dimer tracer, 50 nM EGF); format: binding
T1 construct: Fc; purchased R&D Systems
Method: Plates were blocked for 2 h with 2% BSA in PBS at RT. […] Plates were washed three times with PBS containing 0.05% Tween-20 (PBS-T) and then incubated with a 1:10,000 dilution of streptavidin-HRP (Thermo Fisher Scientific) diluted in assay buffer for 90 min at RT. Plates were washed an additional three times with PBS-T, and then incubated with TMB substrate (BioFx) for 15 min at RT. Reactions were stopped with stop solution (BioFx) and absorbance was read at 450 nm in a microplate reader (SpectraMax M5e, Molecular Devices).

[2] = molecular target: T2, rhEGFR-Fc (Homo sapiens, UniProt P00533); assay: SPR nanoparticle binding, without EGF; details: 1 mg/mL; for nanoparticle binding: FIG. 9C
T2 construct: purchased R&D Systems 344-ER-050
Method: (§1) Surface plasmon resonance (SPR) binding studies were carried out on a Biacore T200 instrument (GE Healthcare). Approximately 10,000 RU of anti-Fc antibody (GE Healthcare, Cat #BR100839) was immobilized via amine coupling on each of flow cells 1 and 2 of a CM5 dextran-coated gold sensor chip (GE Healthcare, Cat #BR100530). Fc tagged recombinant human EGFR (rhEGFR-Fc, R&D systems, Cat #344-ER-050) was reconstituted at 10 μg/mL in PBS and captured on flow cell 2. The contact time and resulting amount of rhEGFR-Fc capture was varied based on the nature of the analyte, namely whether it was a peptide or nanoparticle.
Nanoparticle binding assays were carried out in 10 mM HBS-EP+ buffer (GE Healthcare, Cat #BR100669) at 25° C. Nanoparticles were injected over the rh EGFR-Fc surface for 60 s, followed by dissociation for 60 s and regeneration with a 10 s pulse of 3M MgCl2. A fresh rhEGFR-Fc surface was generated for each concentration of each nanoparticle tested. Nanoparticle sensograms could not be fit accurately to the 1:1 Langmuir kinetic model due to the multivalent nature of the binding interaction between nanoparticle and target. Instead, nanoparticle binding data was presented as a plot of binding response vs. concentration at a single time point after the injection end.

[3] = molecular target: T3, Fc tagged recombinant human EGFR (rhEGFR-Fc) (Homo sapiens, UniProt P00533); format: binding; details: for Result: Table 14, relative affinity compared to KD of parent P2 (FIG. 16); for KD (μM): Table 11, P2 Ala scan; for Relative Affinity: Table 11, relative to the KD of parent P2
T3 construct: purchased R&D Systems 344-ER-050
Method: as §1, with “Fc tagged recombinant human EGFR (rhEGFR-Fc, R&D systems, Cat #344-ER-050) was reconstituted at 10 μg/mL in PBS and captured on flow cell 2.” left out
Peptide binding assays were carried out in 10 mM PBS buffer supplemented with 0.05% surfactant P20 and 5% DMSO by volume, at 25° C. Peptides were injected over the rhEGFR-Fc surface for 60 s, followed by dissociation (buffer injection) for 60 s and regeneration with a 10 s pulse of 3M MgCl2. A fresh rhEGFR-Fc surface was generated for each concentration of each peptide tested. Peptide binding data was analyzed by fitting to a 1:1 Langmuir kinetic model to obtain the on-rate (ka), off-rate (kd) and/or equilibrium binding constant (KD) of the interaction.

Compound: COc1ccc2[nH]cc(C[C@@H]3NC(=O)[C@H](C(C)C)NC(=O)[C@H](CCC(=O)O)NC(=O)[C@H](C4Cc5ccccc5C4)NC(=O)[C@H]([C@@H](C)O)NC(=O)[C@@H](NC(=O)[C@H](C)NC(=O)[C@H](CC(=O)O)NC(C)=O)C(C)(C)SSC(C)(C)[C@@H](C(=O)N[C@@H](CC(C)C)C(=O)N[C@@H](CCC(N)=O)C(=O)NCC(=O)NCC(=O)N[C@@H](CCCCNC(=O)CCOCCOCCOCCOCCOCCNC(=O)CCC(=O)N4Cc5ccccc5C#Cc5ccccc54)C(N)=O)NC(=O)[C@H](CCC(=O)O)NC(=O)[C@H](CCCNC(=N)N)NC(=O)CNC3=O)c2c1 [P2-2/55/102, Ac-DAPenT(2Ind)GEV(5MeO)WGREPenLQGGK(DBCO)-CONH2] (Ac-DA[Pen]T[Igl]EV[Trp(5-OMe)]GRE[Pen]LQGGK([PEG5-Suc-DBCO])-NH2; disulfide 3-12)
- IC50 [1]: 609 nM

Compound: COc1ccc2[nH]cc(C[C@@H]3NC(=O)[C@H](C(C)C)NC(=O)[C@H](CCC(=O)O)NC(=O)[C@H](C4Cc5ccccc5C4)NC(=O)[C@H]([C@@H](C)O)NC(=O)[C@@H](NC(=O)[C@@H]4CCCN4C(=O)[C@H](CC(=O)O)NC(C)=O)C(C)(C)SSC(C)(C)[C@@H](C(=O)N[C@@H](CC(C)C)C(=O)N[C@@H](CCC(N)=O)C(=O)NCC(=O)NCC(=O)N[C@@H](CCCCNC(=O)CCOCCOCCOCCOCCOCCNC(=O)CCC(=O)N4Cc5ccccc5C#Cc5ccccc54)C(N)=O)NC(=O)[C@H](CCC(=O)O)NC(=O)[C@H](CCCNC(=N)N)NC(=O)CNC3=O)c2c1 [P2-55/102, Ac-DPPenT(2Ind)GEV(5MeO)WGREPenLQGGK(DBCO)-CONH2] (Ac-DP[Pen]T[Igl]EV[Trp(5-OMe)]GRE[Pen]LQGGK([PEG5-Suc-DBCO])-NH2; disulfide 3-12)
- IC50 [1]: 829 nM

Compound: Ac-SECFPLAPDWLSCILGGK(DBCO)-CONH2 (Ac-SECFPLAPDWLSCILGGK(DBCO′)-NH2; disulfide 3-13 (inferred)) [Peptide P1]
- nanoparticle binding signal ([2]; 5% and 10% ligand density, FIG. 8B): comparable to EGF-NP
- nanoparticle binding ([2]; 5% ligand density): minimal binding
- nanoparticle binding ([2]; 10% ligand density): more robust binding

Compound: H2N-GDP-Orn-TWEVWGREDLQ-GG-Par-G-CONH2 (H-GDP[Orn]TWEVWGREDLQGG[Pra]G-NH2; lactam 4-13; SMILES C#CC[C@H](NC(=O)CNC(=O)CNC(=O)[C@H](CCC(N)=O)NC(=O)[C@H](CC(C)C)NC(=O)[C@@H]1CC(=O)NCCC[C@H](NC(=O)[C@@H]2CCCN2C(=O)[C@H](CC(=O)O)NC(=O)CN)C(=O)N[C@@H]([C@@H](C)O)C(=O)N[C@@H](Cc2c[nH]c3ccccc23)C(=O)N[C@@H](CCC(=O)O)C(=O)N[C@@H](C(C)C)C(=O)N[C@@H](Cc2c[nH]c3ccccc23)C(=O)NCC(=O)N[C@@H](CCCNC(=N)N)C(=O)N[C@@H](CCC(=O)O)C(=O)N1)C(=O)NCC(N)=O) [Peptide P2-58]
- Result [3]: No binding

Compound: H2N-GDP-Orn-TWEVWGREELQ-GG-Par-G-CONH2 (H-GDP[Orn]TWEVWGREELQGG[Pra]G-NH2; lactam 4-13; SMILES C#CC[C@H](NC(=O)CNC(=O)CNC(=O)[C@H](CCC(N)=O)NC(=O)[C@H](CC(C)C)NC(=O)[C@@H]1CCC(=O)NCCC[C@H](NC(=O)[C@@H]2CCCN2C(=O)[C@H](CC(=O)O)NC(=O)CN)C(=O)N[C@@H]([C@@H](C)O)C(=O)N[C@@H](Cc2c[nH]c3ccccc23)C(=O)N[C@@H](CCC(=O)O)C(=O)N[C@@H](C(C)C)C(=O)N[C@@H](Cc2c[nH]c3ccccc23)C(=O)NCC(=O)N[C@@H](CCCNC(=N)N)C(=O)N[C@@H](CCC(=O)O)C(=O)N1)C(=O)NCC(N)=O) [Peptide P2-61]
- Result [3]: No binding

Compound: H2N-GDPDTWEVWGRE-Dap-LQ-GG-Par-G-CONH2 (H-GDPDTWEVWGRE[Dap]LQGG[Pra]G-NH2; lactam 4-13) [Peptide P2-66]
- Result [3]: No binding

Compound: H2N-GDPDTWEVWGRE-Orn-LQ-GG-Par-G-CONH2 (H-GDPDTWEVWGRE[Orn]LQGG[Pra]G-NH2; lactam 4-13; SMILES C#CC[C@H](NC(=O)CNC(=O)CNC(=O)[C@H](CCC(N)=O)NC(=O)[C@H](CC(C)C)NC(=O)[C@@H]1CCCNC(=O)C[C@H](NC(=O)[C@@H]2CCCN2C(=O)[C@H](CC(=O)O)NC(=O)CN)C(=O)N[C@@H]([C@@H](C)O)C(=O)N[C@@H](Cc2c[nH]c3ccccc23)C(=O)N[C@@H](CCC(=O)O)C(=O)N[C@@H](C(C)C)C(=O)N[C@@H](Cc2c[nH]c3ccccc23)C(=O)NCC(=O)N[C@@H](CCCNC(=N)N)C(=O)N[C@@H](CCC(=O)O)C(=O)N1)C(=O)NCC(N)=O) [Peptide P2-65]
- Result [3]: No binding

Compound: H2N-GDPDTWEVWGREKLQ-GG-Par-G-CONH2 (H-GDPDTWEVWGREKLQGG[Pra]G-NH2; lactam 4-13; SMILES C#CC[C@H](NC(=O)CNC(=O)CNC(=O)[C@H](CCC(N)=O)NC(=O)[C@H](CC(C)C)NC(=O)[C@@H]1CCCCNC(=O)C[C@H](NC(=O)[C@@H]2CCCN2C(=O)[C@H](CC(=O)O)NC(=O)CN)C(=O)N[C@@H]([C@@H](C)O)C(=O)N[C@@H](Cc2c[nH]c3ccccc23)C(=O)N[C@@H](CCC(=O)O)C(=O)N[C@@H](C(C)C)C(=O)N[C@@H](Cc2c[nH]c3ccccc23)C(=O)NCC(=O)N[C@@H](CCCNC(=N)N)C(=O)N[C@@H](CCC(=O)O)C(=O)N1)C(=O)NCC(N)=O) [Peptide P2-64]
- Result [3]: No binding

Compound: H2N-GDPETWEVWGRE-Dap-LQ-GG-Par-G-CONH2 (H-GDPETWEVWGRE[Dap]LQGG[Pra]G-NH2; lactam 4-13) [Peptide P2-69]
- Result [3]: No binding

Compound: H2N-GDPETWEVWGRE-Orn-LQ-GG-Par-G-CONH2 (H-GDPETWEVWGRE[Orn]LQGG[Pra]G-NH2; lactam 4-13; SMILES C#CC[C@H](NC(=O)CNC(=O)CNC(=O)[C@H](CCC(N)=O)NC(=O)[C@H](CC(C)C)NC(=O)[C@@H]1CCCNC(=O)CC[C@H](NC(=O)[C@@H]2CCCN2C(=O)[C@H](CC(=O)O)NC(=O)CN)C(=O)N[C@@H]([C@@H](C)O)C(=O)N[C@@H](Cc2c[nH]c3ccccc23)C(=O)N[C@@H](CCC(=O)O)C(=O)N[C@@H](C(C)C)C(=O)N[C@@H](Cc2c[nH]c3ccccc23)C(=O)NCC(=O)N[C@@H](CCCNC(=N)N)C(=O)N[C@@H](CCC(=O)O)C(=O)N1)C(=O)NCC(N)=O) [Peptide P2-68]
- Result [3]: No binding

Compound: H2N-GDPKTWEVWGREELQ-GG-Par-G-CONH2 (H-GDPKTWEVWGREELQGG[Pra]G-NH2; lactam 4-13; SMILES C#CC[C@H](NC(=O)CNC(=O)CNC(=O)[C@H](CCC(N)=O)NC(=O)[C@H](CC(C)C)NC(=O)[C@@H]1CCC(=O)NCCCC[C@H](NC(=O)[C@@H]2CCCN2C(=O)[C@H](CC(=O)O)NC(=O)CN)C(=O)N[C@@H]([C@@H](C)O)C(=O)N[C@@H](Cc2c[nH]c3ccccc23)C(=O)N[C@@H](CCC(=O)O)C(=O)N[C@@H](C(C)C)C(=O)N[C@@H](Cc2c[nH]c3ccccc23)C(=O)NCC(=O)N[C@@H](CCCNC(=N)N)C(=O)N[C@@H](CCC(=O)O)C(=O)N1)C(=O)NCC(N)=O) [Peptide P2-60]
- Result [3]: No binding

Compound: P2-3: P2 alanine scan analog, alanine at position 3 (Ac-DPATWEVWGRECLQ-NH2) [Peptide P2-3]
- KD (μM) [3]: nb
- Relative Affinity [3]: nb

Compound: P2-8: P2 alanine scan analog, alanine at position 8 (DPCTWEVAGRECLQ; disulfide 3-12 (inferred); not fully specified (N-terminus, C-terminus)) [Peptide P2-8]
- KD (μM) [3]: nb
- Relative Affinity [3]: nb

Compound: P2-12: P2 alanine scan analog, alanine at position 12 (Ac-DPCTWEVWGREALQ-NH2) [Peptide P2-12]
- KD (μM) [3]: nb
- Relative Affinity [3]: nb
